The values below come from patent publication US6730503B1 (Roche Vitamins Inc., priority 1996, dated 2004).

B1: Enzyme A: recombinant AADH of G. oxydans DSM No. 4025, amino acid sequence SEQ ID NO 5, plasmid p24D4/pSSA102R (protein)
chain: MKPTSLLWASAGALALLAAPAFAQVTPVTDELLANPPAGEWISYGQNQENYRHSPLTQITTENVGQLQLVWARGMQPGKVQVTPLIHDGVMYLANPGDVIQAIDAKTGDLIWEHRRQLPNIATLNSFGEPTRGMALYGTNVYFVSWDNHLVALDTATGQVTFDVDRGQGEDMVSNSSGPIVANGVIVAGSTCQYSPFGCFVSGHDSATGEELWRNYFIPRAGEEGDETWGNDYEARWMTGAWGQITYDPVTNLVHYGSTAVGPASETQRGTPGGTLYGTNTRFAVRPDTGEIVWRHQTLPRDNWDQECTFEMMVTNVDVQPSTEMEGLQSINPNAATGERRVLTGVPCKTGTMWQFDAETGEFLWARDTNYQNMIESIDENGIVTVNEDAILKELDVEYDVCPTFLGGRDWPSAALNPDSGIYFIPLNNVCYDMMAVDQEFTSMDVYNTSNVTKLPPGKDMIGRIDAIDISTGRTLWSVERAAANYSPVLSTGGGVLFNGGTDRYFRALSQETGETLWQTRLATVASGQAISYEVDGMQYVAIAGGGVSYGSGLNSALAGERVDSTAIGNAVYVFALPQ
modifications: Gluconobacter oxydans; SIGNAL (1)..(23)
B2: Enzyme B: recombinant AADH of G. oxydans DSM No. 4025, amino acid sequence SEQ ID NO 8, plasmid pSS31/pSSB103R (protein)
chain: MNPTTLLRTSAAVLLLTAPAAFAQVTPITDELLANPPAGEWINYGRNQENYRHSPLTQITADNVGQLQLVWARGMEAGAVQVTPMIHDGVMYLANPGDVIQALDAQTGDLIWEHRRQLPAVATLNAQGDRKRGVALYGTSLYFSSWDNHLIALDMETGQVVFDVERGSGEDGLTSNTTGPIVANGVIVAGSTCQYSPYGCFISGHDSATGEELWRNHFIPQPGEEGDETWGNDFEARWMTGVWGQITYDPVTNLVFYGSTGVGPASETQRGTPGGTLYGTNTRFAVRPDTGEIVWRHQTLPRDNWDQECTFEMMVANVDVQPSAEMEGLRAINPNAATGERRVLTGAPCKTGTMWSFDAASGEFLWARDTNYTNMIASIDETGLVTVNEDAVLKELDVEYDVCPTFLGGRDWSSAALNPDTGIYFLPLNNACYDIMAVDQEFSALDVYNTSATAKLAPGFENMGRIDAIDISTGRTLWSAERPAANYSPVLSTAGGVVFNGGTDRYFRALSQETGETLWQARLATVATGQAISYELDGVQYIAIGAGGLTYGTQLNAPLAEAIDSTSVGNAIYVFALPQ
modifications: Gluconobacter oxydans; SIGNAL (1)..(23)
B3: Enzyme A″: recombinant AADH of G. oxydans DSM No. 4025, amino acid sequence SEQ ID NO 7, plasmid p26C3 (protein)
chain: MKLTTLLQSSAALLVLGTIPALAQTAITDEMLANPPAGEWINYGQNQENYRHSPLTQITADNVGQLQLVWARGMEAGKIQVTPLVHDGVMYLANPGDVIQAIDAATGDLIWEHRRQLPNIATLNSFGEPTRGMALYGTNVYFVSWDNHLVALDTSTGQVVFDVDRGQGTDMVSNSSGPIVANGVIVAGSTCQYSPFGCFVSGHDSATGEELWRNTFIPRAGEEGDETWGNDYEARWMTGVWGQITYDPVGGLVHYGTSAVGPAAEIQRGTVGGSMYGTNTRFAVRPETGEIVWRHQTLPRDNWDQECTFEMMVVNVDVQPSAEMEGLHAINPDAATGERRVVTGVPCKNGTMWQFDAETGEFLWARDTSYQNLIESVDPDGLVHVNEDLVVTELEVAYEICPTFLGGRDWPSAALNPDTGIYFIPLNNACSGMTAVDQEFSSLDVYNVSLDYKLSPGSENMGRIDAIDISTGRTLWSAERYASNYAPVLSTGGGVLFNGGTDRYFRALSQETGETLWQTRLATVASGQAISYEIDGVQYVAIGRGGTSYGSNHNRALTERIDSTAIGSAIYVFALPQQ
modifications: Gluconobacter oxydans; SIGNAL (1)..(23)
B4: Enzyme A′: recombinant AADH of G. oxydans DSM No. 4025, amino acid sequence SEQ ID NO 6, plasmid p1E2 (protein)
chain: MKTSSLLVASVAALASYSSFALAQVTPVTDELLANPPAGEWISYGQNQENYRHSPLTQITTENVGQLQLVWARGMQPGKVQVTPLIHDGVMYLANPGDVIQAIDAKTGDLIWEHRRQLPNIATLNSFGEPTRGMALYGTNVYFVSWDNHLVALDTATGQVTFDVDRGQGEDMVSNSSGPIVANGVIVAGSTCQYSPFGCFVSGHDSATGEELWRNYFIPRAGEEGDETWGNDYEARWMTGVWGQITYDPVGGLVHYGSSAVGPASETQRGTTGGTMYGTNTRFAVRPETGEIVWRHQTLPRDNWDQECTFEMMVANVDVQPAADMDGVRSINPNAATGERRVLTGVPCKTGTMWQFDAETGEFLWARDTSYENIIESIDENGIVTVDESKVLTELDTPYDVCPLLLGGRDWPSAALNPDTGIYFIPLNNTCMDIEAVDQEFSSLDVYNQSLTAKMAPGKELVGRIDAIDISTGRTLWTAEREASNYAPVLSTAGGVLFNGGTDRYFRALSQETGETLWQTRLATVASGQAVSYEIDGVQYIAIGGGGTTYGSFHNRPLAEPVDSTAIGNAMYVFALPQQ
modifications: Gluconobacter oxydans; SIGNAL (1)..(23)

One experiment can be described thus: Substrate specificity of purified enzymes, PMS-DCIP spectrophotometric assay. As to conditions: 2 mM L-Sorbosone; A′ corrected 1.5-fold (purity about 65%). The class given is biochemical. Here is the method:
The enzymatic activity of the AADHs herein can be determined by methods known in the art, such as by photometric analysis using a spectrophotometer. In accordance with the present invention, one unit of enzyme activity was defined as the amount of enzyme which catalyzed the reduction of 1 μmole of DCIP per minute. The extinction coefficient of DCIP at pH 8.0 was taken as 15 mM^−1. In a preferred standard assay for determining the enzyme activity of the AADHs herein, a first cuvette includes a standard reaction mixture (1.0 ml) containing 0.1 mM DCIP, 1 mM PMS, 2 to 125 mM substrate, 50 mM Tris-malate-NaOH buffer (pH 8.0), and 10 μl of the enzyme solution. A second cuvette, i.e., a reference cuvette, contains all the above components except the substrate. The reference cuvette is used to standardize the background absorbance resulting from a substrate-independent (endogenous) reaction. Preferably, a double beam spectrophotometer is used to determine the activity of the enzyme in the presence of a substrate with respect to a standard reaction mixture in the absence of the substrate.
Enzyme activities of each clone (cell free extract, soluble fraction and membrane fraction) were measured by photometric analysis. The cells of each clone were inoculated in 5 ml of MB medium in a test tube and cultivated at 30° C. for 24 hours. The resulting broth was transferred into 200 ml of fresh MB medium in 500 ml flask and the flask was shaken on the rotary flask shaker at 30° C. for 24 hours. The cells were collected by centrifugation at 6,000×g for 10 minutes and washed with 40 ml of cold buffer consisting of 50 mM Tris-HCl, pH 7.5, 5 mM MgCl2 and 0.5 mM phenylmethylsulfonyl fluoride and suspended with the same buffer to prepare cell suspension of 1 g wet cells per 5 ml. The cell suspension was subjected twice to a French press cell disruptor (1,500 kg/cm^2) and the resulting homogenate was centrifuged at 6,000×g for 10 minutes to remove cell debris. Thus obtained cell free extract (CFE) was centrifuged at 100,000×g for 60 minutes. The resulting supernatant and pellet were collected as the cytosol fraction and the membrane fraction, respectively and subjected to PMS-DCIP assay as follows. The enzyme reaction mixture (1.0 ml) contained 100 μM DCIP, 1 mM PMS, 50 mM Tris malate-NaOH buffer, pH 8.0, a substrate and the enzyme (10 μl). Substrate-dependent decreasing rate of absorbance of DCIP at 600 nm was measured at 25° C. by using a Kontron spectrophotometer UVIKON 810. […] In the A-group, there were three types, A, A′ and A″ each of which was distinguished from each other by their physical map of the DNA carried on each plasmid. B- or C-group each consisted of only one type of protein derived from one region of the chromosomal DNA.
Regarding B1, the Substrate specificity is given as 23.15 units/mg of purified protein.

As to B2, the Substrate specificity is on record as 73.6 units/mg of purified protein.

In the case of B3, the Substrate specificity was 26.5 units/mg of purified protein.

For the molecule B4, the Substrate specificity is recorded as 5.0 units/mg of purified protein.

The experiment is the same for the next values; noted with them: 50 mM D-Glucose; A′ corrected 1.5-fold (purity about 65%).
As to B1, the Substrate specificity is on record as 2.4 units/mg of purified protein.

Take B2: the Substrate specificity is reported as 943.9 units/mg of purified protein.

In the case of B3, the Substrate specificity is listed as 17.8 units/mg of purified protein.

Consider B4, for which the Substrate specificity is recorded as 0.0 units/mg of purified protein.

The experiment is the same for the next values; noted with them: 50 mM D-Mannitol; A′ corrected 1.5-fold (purity about 65%).
Regarding B1, the Substrate specificity was 7.1 units/mg of purified protein.

As for B2, the Substrate specificity is on record as 517.4 units/mg of purified protein.

As for B3, the Substrate specificity is given as 6.2 units/mg of purified protein.

On to B4, for which the Substrate specificity was 1.3 units/mg of purified protein.

The experiment is the same for the next values; noted with them: 50 mM Isopropanol; A′ corrected 1.5-fold (purity about 65%).
As to B1, the Substrate specificity is 76.8 units/mg of purified protein.

On to B2, for which the Substrate specificity is 72.3 units/mg of purified protein.

With B3, the Substrate specificity was 154.9 units/mg of purified protein.

On to B4, for which the Substrate specificity was 108.9 units/mg of purified protein.

The experiment is the same for the next values; noted with them: 50 mM n-Propanol; A′ corrected 1.5-fold (purity about 65%).
For the molecule B1, the Substrate specificity is 139.6 units/mg of purified protein.

For B2, the Substrate specificity is on record as 40.0 units/mg of purified protein.

In the case of B3, the Substrate specificity is 262.3 units/mg of purified protein.

Take B4: the Substrate specificity is listed as 180.7 units/mg of purified protein.

The same experiment, now with this note: 125 mM D-Fructose; A′ corrected 1.5-fold (purity about 65%).
Regarding B1, the Substrate specificity is 30.7 units/mg of purified protein.

With B2, the Substrate specificity is given as 2.1 units/mg of purified protein.

In the case of B3, the Substrate specificity is listed as 17.3 units/mg of purified protein.

Regarding B4, the Substrate specificity was 2.9 units/mg of purified protein.

The experiment is the same for the next values; noted with them: 125 mM D-Sorbitol; A′ corrected 1.5-fold (purity about 65%).
On to B1, for which the Substrate specificity is listed as 14.0 units/mg of purified protein.

Consider B2, for which the Substrate specificity was 130.9 units/mg of purified protein.

For B3, the Substrate specificity was 30.1 units/mg of purified protein.

Turning to B4, the Substrate specificity is given as 7.8 units/mg of purified protein.

Still in this experiment, the particulars now being: 125 mM L-Sorbose; A′ corrected 1.5-fold (purity about 65%).
In the case of B1, the Substrate specificity was 47.4 units/mg of purified protein.

In the case of B2, the Substrate specificity was 8.4 units/mg of purified protein.

In the case of B3, the Substrate specificity is 30.3 units/mg of purified protein.

Consider B4, for which the Substrate specificity is 1.6 units/mg of purified protein.

A further experiment in a line: 2KGA production by purified recombinant AADH in a reaction mixture. As to conditions: 1.7 mg/ml enzyme, 4% L-sorbose, 30° C., 20 hours; TLC assay. The class given is biochemical. An excerpt: As a result, about 2 g/l 2KGA (TLC assay) was produced. […]
In the case of B1, the 2KGA produced entry is “about 2 g/l”.

A short description of a further experiment: Product assay with Enzyme sA2 and Enzyme A. The class given is biochemical.
Details: not given
Regarding B1, the “Products from D-sorbitol in product assay” value is “D-glucose only” and the “Products from L-sorbose in product assay” value is listed as 2KGA.
